These results are taken from paper PMC4260879.

Assay [1] concerns the target UG37 gp140 (HIV-1). Description: SEC; Superdex200 26/60; trimer peak after Talon, re-run after GNA-lectin capture.
Assay [2] deals with UG37 gp140 (HIV-1). The assay is described as follows: ELISA; gp140 coated at 2 ug/ml (2 hr, 37 C); CD4-IgG2 titrated, 2 hr at RT; detected with anti-human-IgG-HRP; one-site binding fit, EC50 at 50% of maximum binding. On the technique in general: An ELISA detects its analyte on a solid surface through an enzyme-linked reagent.

Turning to UG37 gp140 (domain or fragment), the stoichiometry N – broadly, the number of molecules, sites or subunits per partner or assembly – with UG37 gp140 (HIV-1) [1] was determined as 3.

On to “CD4-IgG2 (from UniProt P01730 26-458) (Fc fusion)”, for which the EC50 (usually the midpoint of the concentration-response curve) with UG37 gp140 (HIV-1) [2] came to 0.18 nM.
